Source: patent US20180312587A1 (ADURO BIOTECH HOLDINGS EUROPE B V, published 2018)
Like-named read-outs stand apart in the source and are kept apart here.

Tests used:
human SIRPα variant 1 [1] = molecular target: T1, human SIRPα variant 1 (human, UniProt P78324 31-504); assay: CELISA, CHO-K1 transfectants
T1 construct: full length ORF on transfected CHO-K1 or HEK293 cells; entry includes the signal peptide; also called hSIRPαV1; SIRPαV1
Experimental: (§1) The specificity of monoclonal anti-hSIRPα antibodies (e.g., including the hSIRPα antibodies known in the art, KWAR23 (U.S. Patent CA2939293 A1), 18D5 (Patent WO2017/178653 A2), and various commercially available hSIRPα antibodies) for binding to hSIRPαV1, hSIRPαV1(P74A), and hSIRPβ1 was evaluated by CELISA. Reactivity was confirmed using CHO-K1 cells (ATCC CCL-61) expressing a cDNA encoding the full length open reading frame of hSIRPαV1, hSIRPαV1(P74A), and hSIRPβ1 subcloned into the pCI-neo vector (Promega, Madison, Wis.). CHO-K1.hSIRPαV1, CHO-K1.hSIRPαV1(P74A), and CHO-K1.hSIRPβ1 cells were seeded in culture medium (DMEM-F12 (Gibco) supplemented with 5% New Born Calf Serum (BioWest) and Pen/Strep (Gibco)) in 96-well flat-bottom tissue culture plates and incubated at 37° C., 5% CO₂ and 95% humidity for 24 hours. Subsequently, culture medium was removed and cells were incubated for 1 hour at 37° C., 5% CO₂ and 95% humidity with purified hSIRPα antibodies (used at 10 μg/ml and dilutions thereof). Next, cells were washed with PBS-T and incubated for 1 hour at 37° C., 5% CO₂ and 95% humidity with either goat-anti-mouse IgG-HRP (Southern Biotech), goat-anti-human IgG-HRP (Jackson Immuno Research), or goat-anti-rabbit IgG-HRP (Southern Biotech). Subsequently, cells were washed three times with PBS-T and immunoreactivity against hSIRPαV1, hSIRPαV1(P74A), and hSIRPβ1 was visualized with TMB Stabilized Chromogen (Invitrogen). Reactions were stopped with 0.5 M H₂SO₄ and absorbances were read at 450 and 610 nm.

[2] = molecular target: T2, hSIRPα expressed on primary human cells (human, UniProt P78324 31-504); assay: flow cytometry, primary human granulocytes, donor 1
T2 construct: whole, on cells; also called hSIRPα on primary human CD14+ monocytes; on primary human granulocytes
T2 sequence (P78324 31-504): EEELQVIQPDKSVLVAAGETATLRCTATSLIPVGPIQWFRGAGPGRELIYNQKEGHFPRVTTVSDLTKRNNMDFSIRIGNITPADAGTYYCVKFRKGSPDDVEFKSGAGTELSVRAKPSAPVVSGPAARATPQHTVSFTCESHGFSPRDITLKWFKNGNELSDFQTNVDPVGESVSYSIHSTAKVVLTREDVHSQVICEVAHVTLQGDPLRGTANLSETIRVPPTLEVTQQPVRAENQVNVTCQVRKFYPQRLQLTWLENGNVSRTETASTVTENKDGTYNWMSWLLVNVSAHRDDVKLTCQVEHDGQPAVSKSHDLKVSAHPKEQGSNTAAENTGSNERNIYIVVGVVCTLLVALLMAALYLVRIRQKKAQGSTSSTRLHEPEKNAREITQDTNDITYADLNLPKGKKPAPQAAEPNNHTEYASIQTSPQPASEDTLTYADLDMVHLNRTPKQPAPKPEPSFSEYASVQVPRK
Experimental: Next, cells were centrifuged at 300 g for 7 minutes. Supernatants containing lysed RBCs were removed by aspiration, and the remaining blood cells were gently resuspended in RBC lysis buffer and kept on ice for 1 minute. RBC lysis was neutralized by adding assay medium (IMDM (Gibco) supplemented with 10% Fetal Bovine Serum (Gibco) and Pen/Strep (Gibco)). Blood cells were centrifuged at 300 g for 6 minutes and supernatants were removed by aspiration to remove remaining RBCs as much as possible. Subsequently, erythrocyte-lysed blood cells were resuspended in assay medium containing 10 ng/mL IFNγ and cells were incubated for 1 hour at 37° C., 5% CO₂ and 95% humidity. […] The percentage of granulocytes present in the cell suspension was determined by flow cytometry on the FACSCanto II (BD Biosciences) based on high forward scatter (FSC) and side scatter (SSC). Binding of hSIRPα.50A to human granulocytes was assessed by incubating the cells for 30 minutes at 4° C. with hSIRPα.50A antibody (25 μg/mL and dilutions thereof) in PBS/1% BSA containing 10% autologous serum (PBS/1% BSA/10% serum). […] After this labeling procedure, cells were washed two times, resuspended in PBS/1% BSA/10% serum and analysed by flow cytometry on the FACSCanto II (BD Biosciences). Data were processed and analysed with FlowJo V10 software (FlowJo, LLC). […]

human SIRPα variant 1 [3] = molecular target: T1, human SIRPα variant 1; assay: CELISA, CHO-K1 transfectants; remark: listed apart in the source
Experimental: as §1, with “Reactivity” for “The specificity of monoclonal anti-hSIRPα antibodies (e.g., including the hSIRPα antibodies known in the art, KWAR23 (U.S. Patent CA2939293 A1), 18D5 (Patent WO2017/178653 A2), and various commercially available hSIRPα antibodies) for binding to hSIRPαV1, hSIRPαV1(P74A), and hSIRPβ1 was evaluated by CELISA. Reactivity”, “hSIRPαV1(P74A), hSIRPαV2,” for “hSIRPαV1(P74A),”, “CHO-K1.hSIRPαV1(P74A), CHO-K1.hSIRPαV2,” for “CHO-K1.hSIRPαV1(P74A),”, “μg/mL” for “μg/ml”, “with” for “with either”, “goat-anti-mouse” for “goat-anti-mouse IgG-HRP (Southern Biotech), goat-anti-human IgG-HRP (Jackson Immuno Research), or goat-anti-rabbit”

human SIRPα variant 2 = molecular target: T3, human SIRPα variant 2 (human, UniProt P78324 31-504); assay: CELISA, CHO-K1 transfectants
T3 construct: full length ORF on transfected CHO-K1 cells; also called hSIRPαV2; SIRPαV2
T3 sequence (P78324 other isoform, or with tags, fused parts or gaps mutant limits assumed): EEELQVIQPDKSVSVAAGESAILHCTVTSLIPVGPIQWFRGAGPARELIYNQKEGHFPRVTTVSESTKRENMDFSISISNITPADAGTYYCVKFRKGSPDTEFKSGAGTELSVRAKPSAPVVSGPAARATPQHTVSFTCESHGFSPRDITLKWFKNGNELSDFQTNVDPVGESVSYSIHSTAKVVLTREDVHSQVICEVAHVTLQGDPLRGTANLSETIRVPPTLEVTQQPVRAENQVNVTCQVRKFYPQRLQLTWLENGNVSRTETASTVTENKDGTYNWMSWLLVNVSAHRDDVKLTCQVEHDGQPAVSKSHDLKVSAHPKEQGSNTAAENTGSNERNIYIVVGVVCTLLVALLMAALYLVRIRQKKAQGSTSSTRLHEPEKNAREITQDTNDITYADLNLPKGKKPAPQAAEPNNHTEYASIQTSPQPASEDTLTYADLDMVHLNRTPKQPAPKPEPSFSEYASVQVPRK
Experimental: as §1, with “Reactivity” for “The specificity of monoclonal anti-hSIRPα antibodies (e.g., including the hSIRPα antibodies known in the art, KWAR23 (U.S. Patent CA2939293 A1), 18D5 (Patent WO2017/178653 A2), and various commercially available hSIRPα antibodies) for binding to hSIRPαV1, hSIRPαV1(P74A), and hSIRPβ1 was evaluated by CELISA. Reactivity”, “hSIRPαV1(P74A), hSIRPαV2,” for “hSIRPαV1(P74A),”, “CHO-K1.hSIRPαV1(P74A), CHO-K1.hSIRPαV2,” for “CHO-K1.hSIRPαV1(P74A),”, “μg/mL” for “μg/ml”, “with” for “with either”, “goat-anti-mouse” for “goat-anti-mouse IgG-HRP (Southern Biotech), goat-anti-human IgG-HRP (Jackson Immuno Research), or goat-anti-rabbit”

human SIRPγ = molecular target: T4, human SIRPγ (human, UniProt Q9P1W8 29-387); assay: flow cytometry, Jurkat E6.1 cells
T4 construct: on transfected CHO-K1 cells; also called hSIRPγ
T4 sequence (Q9P1W8 29-387 limits assumed): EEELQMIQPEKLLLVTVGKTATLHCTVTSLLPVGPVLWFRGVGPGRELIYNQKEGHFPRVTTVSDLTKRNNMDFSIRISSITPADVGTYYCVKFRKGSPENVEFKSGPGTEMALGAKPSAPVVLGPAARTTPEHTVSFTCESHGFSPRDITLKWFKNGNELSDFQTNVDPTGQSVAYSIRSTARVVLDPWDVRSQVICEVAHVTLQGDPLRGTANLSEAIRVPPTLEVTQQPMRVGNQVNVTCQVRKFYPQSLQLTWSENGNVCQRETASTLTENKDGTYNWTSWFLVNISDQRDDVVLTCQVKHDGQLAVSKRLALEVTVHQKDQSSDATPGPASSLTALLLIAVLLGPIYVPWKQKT
Experimental: Binding to hSIRPγ was assessed by flow cytometry using the Jurkat E6.1 T cell leukemia cell line (ECACC 88042803). Jurkat cells were seeded in 96-well round bottomed tissue culture plates and incubated for 40 minutes with the anti-hSIRPα antibodies (20 μg/mL and dilutions thereof) in PBS/1% BSA at 4° C. […] After this labeling procedure, cells were washed two times, resuspended in PBS/1% BSA, containing 0.1 μg/mL DAPI (BioLegend), and analysed by flow cytometry on the FACSVerse (BD Biosciences). Data were processed and analysed with FlowJo V10 software (FlowJo, LLC).

T1 sequence (P78324 31-504 limits assumed, change not shown): as the sequence (P78324 31-504) above

Binder	EC50 (human SIRPα variant 1 [1]) [nM]	EC50 [2] [nM]	EC50 (human SIRPα variant 1 [3]) [nM]	EC50 (human SIRPα variant 2) [nM]	EC50 (human SIRPγ) [nM]
hSIRPα.50A (antibody, V domains shown, light chain constant domain not tied; also called mouse hSIRPα.50A; hSIRPα.50A.mIgG1) VH: QVQLQQSGPELVKPGASVRISCKASGFTFTNYYIHWVKQRPGQGLEWIGWIYPGNVNTKYNEKFKAKATLTADKSSTTAYMQLSSLASEDSAVYFCARPTIIATDFDVWGAGTTVTVSS VL: DIVMTQSHKFMSTSVGDRVNITCKASQGVGTAVGWYQQKPGQSPRLLIYWASTRHTGVPDRFTGSGSGTDFSLAISNVQSEDLADYFCQQYSTYPFTFGGGTNLEIK	0.307	4.3	0.773	0.645	–
hSIRPα.40A (antibody, mouse IgG1, kappa, V domains shown, mouse antibody, full chains without signal peptide; also called mouse hSIRPα.40A) VH: EVQFQQSGTVLARPGTSVKMSCKASGSTFTSYWMHWVKQGPGQGLQWIGAIYPVNNDTTYNQKFKGKAELTVVTSTSTAYMEVSSLTNEDSAVYYCTRSFYYSLDAAWFVYWGQGTLVTVSA VL: DIQMTQSPSSLSASLGERVSLTCRASQDIGSRLNWLQQEPDGTIKRLIYATSSLDSGVPKRFSGSRSGSDYSLTISGLESEDFVDYYCLQYASSPFTFGGGTKLEINR	0.053	1.23	0.114	0.093	0.369
KWAR23 (antibody, V domains shown) VH: EVQLQQSGAELVKPGASVKLSCTASGFNIKDYYIHWVQQRTEQGLEWIGRIDPEDGETKYAPKFQDKATITADTSSNTAYLHLSSLTSEDTAVYYCARWGAYWGQGTLVTVSS VL: QIVLTQSPAIMSASPGEKVTLTCSASSSVSSSYLYWYQQKPGSSPKLWIYSTSNLASGVPARFSGSGSGTSYSLTISSMEAEDAASYFCHQWSSYPRTFGAGTKLELK	0.135	–	0.07	0.049	0.003
